In article doi:10.1101/301622 (bioRxiv, 2018):

Molecular target: ΔCTT, a variant of FtsZ that lacks the CTT (B. subtilis)

GTPase activity (coupled assay, 5 μM protein, 1 mM GTP), relative to WT FtsZ: 3 fold
Substance: ΔCTT, a variant of FtsZ that lacks the CTT (domain or fragment)
